Data published in paper PMC5376981 (Scientific Reports, 2014).
Positions count from the first letter of the chain named.

B1: VHH895 (VHH)
VHH: QVQLQESGGGLVQAGGSLRVSCAASGRALSDYAMGWFRQTPGKEREFVAAISWNGGNTYYADSVKGRFTISRDNAENTVYLQMNSLKPEDTAVYYCAANDLAVPGLLMPRVETYDYWGQGTQVTVSS
B2: VHH905 (VHH)
VHH: B1 VHH with V20L, A28T, L29F, D31S, T40A, N57S, V79G, A102M, G105E
B3: VHH874 (VHH)
VHH: B1 VHH with V20L, L29F, T40A, E46D, A61S, E76K, G105E
B4: VHH884 (VHH)
VHH: B1 VHH with V20L, A28T, L29F, D31N, T40A, N57S, V64A, Y95R, A102M, G105E
B5: VHH860 (VHH)
VHH: B1 VHH with V20L, L29F, T40A, E46D, A61S, G105E
B6: VHH897 (VHH)
VHH: B1 VHH with V20I, A28T, L29F, T40A, G56D, E76K
B7: VHH863 (VHH)
VHH: QVQLQESGGGLVQTGGSLRLSCAASGRTFMDYVMGWFRQAPGKEREFVASISWTDSTRYTDSVKGRFTASRDDAEATVYLQMNNLQFEDTAVYYCARGAGRGHSVSAGDYVYWGQGTQVTVSS
B8: VHH864 (VHH)
VHH: B7 VHH with E75K
B9: VHH859 (VHH)
VHH: QVQLQESGGGLVQAGGSLRLSCAASGRTFSSYAMGWFRQAPGKEREFVAAISWNGSSTYYADSVKGRFTISRDNAKNTVYLQMNSLKPEDTAVYYCAANDLLVPELLMSRVEVYDYWGQGTQVTVSS
B10: VHH883 (VHH)
VHH: B9 VHH with N54S, S56D, S57T, Y80S, L102M, E105A, S109P, V111L, V113S
B11: VHH880 (VHH)
VHH: B9 VHH with S31D, E44D, N54S, S56D, S57R, K76E, Y95H, L102M, S109P, V113S
B12: VHH879 (VHH)
VHH: B9 VHH with S31D, E44D, N54S, S56D, S57R, Y95H, L102M, S109P, V113S
B13: VHH893 (VHH)
VHH: QVQLQESGGGLVQAGGSLRLSCAASGFTFDDYAIGWFRQAPGKEREGVSCISSGDGGTYYADSVKGRFTISSDNAENTVALQMNSLKPEDTAVYYCAAVYGSCWDGLLYRTDSYEYDGWGQGTQVTVSS
B14: VHH867 (VHH)
VHH: QVQLQESGGGLVQAGGSLRLSCAASGFTLDDYGIGWFRQAPGKEREGVSFISSSDGTTDYADSVKGRFTISSDNAKNTVYLQMNSLKPEDTAVYYCAAVEQRVPFLSVLHEAIYDYWGQGTQVTVSS
B15: VHH891 (VHH)
VHH: QVQLQESGGGLVQTGDSLRLSCAASGRTFSSYAMGWFRQAPGKEREFVAAITWGDGSADYADSVKGRFTISRDNAENTVYLQMNSLKPEDTAVYYCAAETVGAPIYTLGYSEAYDYWGQGTQVTVSS
B16: VHH871 (VHH)
VHH: QVQLQESGGGLVQAGGSLRLSCAASGSIFSIHAMGWYRQAPGKQRELVAAITSGGSTNYGDSVKGRFTISEDNAKNTVYLQMNGLKPEDTAVYYCAADNDGLGYVYWGQGTQVTVSS
B17: VHH889 (VHH)
VHH: QVQLQESGGGLVQAGGSLRLSCAASGRSFSSYAMGWFRQAPGKEREFVATITWSGGSTYYADSVKGRFTISGDSAENTVYLQMNSLKPEDTAVYYCAADETSAPLYRAYEAQYDYWGQGTQVTVSS

What was measured:
[1] = biological target: native VAR2CSA on FCR3-CSA infected erythrocytes (Plasmodium falciparum FCR3, UniProt Q6UDW7, strain); assay: flow cytometry on cells
[2] = biological target: full-length VAR2CSA recombinant protein (3D7-DBL1X-6ε) (Plasmodium falciparum 3D7, UniProt Q8I639, strain); assay: SPR
[3] = biological target: native VAR2CSA on NF54-CSA infected erythrocytes (Plasmodium falciparum NF54 (parent of …, UniProt Q8I639, strain)); assay: flow cytometry on cells
3D7-DBL1X-3X = 3D7-DBL1X-3X (Plasmodium falciparum 3D7, UniProt Q8I639, strain); assay: ELISA
3D7-DBL1X = 3D7-DBL1X (Plasmodium falciparum 3D7, UniProt Q8I639, strain); assay: ELISA
3D7-DBL2X = 3D7-DBL2X (Plasmodium falciparum 3D7, UniProt Q8I639, strain); assay: ELISA
FCR3-DBL3X = FCR3-DBL3X (Plasmodium falciparum FCR3, UniProt Q6UDW7, strain); assay: ELISA
FCR3-DBL6ε = FCR3-DBL6ε (Plasmodium falciparum FCR3, UniProt Q6UDW7, strain); assay: ELISA

Row | Binder | binding result [1] | Kd [2] [nM] | koff [2] [s⁻¹] | kon [2] [M⁻¹ s⁻¹] | binding result [3] | binding result (3D7-DBL1X-3X) | binding result (3D7-DBL1X) | binding result (3D7-DBL2X) | binding result (FCR3-DBL3X) | binding result (FCR3-DBL6ε)
1 | B1 | binds | 800 | 87.2 | 1.1e+08 |  |  |  |  |  | 
2 | B2 | binds |  |  |  | binds | binds | binds |  |  | 
3 | B3 | binds |  |  |  | binds | binds | binds | no binding (tested: 0.3 µg/ml) | no binding (tested: 0.3 µg/ml) | 
4 | B4 | binds | 400 | 0.0036 | 9860 |  |  |  | no binding (tested: 0.3 µg/ml) | no binding (tested: 0.3 µg/ml) | 
5 | B5 | binds | 28 | 0.0013 | 46000 |  |  |  | no binding (tested: 0.3 µg/ml) | no binding (tested: 0.3 µg/ml) | 
6 | B6 | binds | 43 | 0.0013 | 31000 |  |  |  |  |  | 
7 | B7 | no binding (tested: 100 µg/ml) | 46 | 0.0014 | 31000 |  |  |  |  |  | no binding (tested: 0.3 µg/ml)
8 | B8 | no binding (tested: 100 µg/ml) | 18 | 0.00063 | 34000 |  |  |  |  |  | no binding (tested: 0.3 µg/ml)
9 | B9 | binds | 300 | 0.0032 | 12000 |  |  |  | no binding (tested: 0.3 µg/ml) | no binding (tested: 0.3 µg/ml) | 
10 | B10 | binds | 10 | 0.0017 | 170000 |  |  |  | no binding (tested: 0.3 µg/ml) | no binding (tested: 0.3 µg/ml) | 
11 | B11 | binds | 100 | 0.0018 | 15000 |  |  |  | no binding (tested: 0.3 µg/ml) | no binding (tested: 0.3 µg/ml) | 
12 | B12 | binds | 19 | 0.0015 | 79000 |  |  |  | no binding (tested: 0.3 µg/ml) | no binding (tested: 0.3 µg/ml) | 
13 | B13 | no binding (tested: 100 µg/ml) | 27 | 0.0017 | 60000 |  |  |  |  |  | 
14 | B14 | binds | 300 | 0.0027 | 8690 |  |  |  | no binding (tested: 0.3 µg/ml) | no binding (tested: 0.3 µg/ml) | 
15 | B15 | binds | 700 | 0.0014 | 2050 |  |  |  | no binding (tested: 0.3 µg/ml) | no binding (tested: 0.3 µg/ml) | 
16 | B16 | binds | 200 | 3.9e-05 | 216 |  |  |  | no binding (tested: 0.3 µg/ml) | no binding (tested: 0.3 µg/ml) | 
17 | B17 | binds | 700 | 0.035 | 54000 |  |  |  | no binding (tested: 0.3 µg/ml) | no binding (tested: 0.3 µg/ml) | 
